# Source: patent US20250066483A1
# Experiments:
# [1] = biological target: canine PD-L1-His (canine); assay: SPR (Biacore X100), cPD-L1-His captured by anti-histidine antibody on a CM5 chip, canine PD-1-Ig as analyte
# [2] = biological target: canine PD-L1-His (canine); assay: SPR (Biacore X100), cPD-L1-His captured by anti-histidine antibody on a CM5 chip, canine CD80-Ig as analyte
Substance,Kd [1],Kd [2]
canine PD-1-Ig (Fc fusion),25.4 nM,
canine CD80-Ig (Fc fusion),,24.3 nM
